From the supplement of paper PMC9112550, “Optimization of the antimicrobial peptide Bac7 by deep mutational scanning” (BMC Biology, 2022) come the findings set out here.

This series deals with Escherichia coli TOP10. Put plainly: shrunken log2 fold change of peptide-encoding DNA abundance (4.5 h post-induction vs induction); higher = less antimicrobial activity (less host growth inhibition). The settings on record: time post-induction: 4.5 h; library: site-saturation at positions 5, 18, 19, 20.
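Note: peptides expressed intracellularly from a pBAD plasmid library in pooled LB shake-flask culture, induced with 0.3% L-arabinose, DNA abundance read by NGS, three biological replicates, DESeq2 with apeglm shrinkage.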

For RRIRRRPPRLPRPRPRPLTWPRP, the “shrunken log2 fold change” value was 0.845. In the case of RRIRFRPPRLPRPRPRPRLNPRP it was -0.228; in that of RRIRPRPPRLPRPRPRPPRRPRP, 0.638; in that of RRIRHRPPRLPRPRPRPHVRPRP, -0.0157. As for RRIRARPPRLPRPRPRPVNYPRP, the figure is -0.476; as for RRIRRRPPRLPRPRPRPPSHPRP, 0.586. As for RRIRGRPPRLPRPRPRPQNEPRP, the figure is 0.208; as for RRIRMRPPRLPRPRPRPRVKPRP, 0.494. On to RRIRIRPPRLPRPRPRPSEGPRP, for which the “shrunken log2 fold change” value is -0.0262. RRIRDRPPRLPRPRPRPDPYPRP: the “shrunken log2 fold change” value was determined as 0.00859. Consider RRIRIRPPRLPRPRPRPLRYPRP, for which the “shrunken log2 fold change” value is -0.409.

With RRIRQRPPRLPRPRPRPQTCPRP, the “shrunken log2 fold change” value was 0.0348. In the case of RRIRNRPPRLPRPRPRPRCWPRP it was 0.108; in that of RRIRIRPPRLPRPRPRPRWEPRP, 0.0225; in that of RRIRARPPRLPRPRPRPIHCPRP, -0.189.

Take RRIRHRPPRLPRPRPRPTQWPRP: the “shrunken log2 fold change” value was determined as 0.0126. In the case of RRIRLRPPRLPRPRPRPDTYPRP it was -0.93; in that of RRIRVRPPRLPRPRPRPCTMPRP, -0.193. As for RRIRTRPPRLPRPRPRPKYDPRP, the figure is -0.434; as for RRIRDRPPRLPRPRPRPTADPRP, 0.133; as for RRIRHRPPRLPRPRPRPDQSPRP, -0.016.

RRIRMRPPRLPRPRPRPACDPRP: the “shrunken log2 fold change” value amounted to 0.974.

As to RRIRCRPPRLPRPRPRPGYPPRP, the “shrunken log2 fold change” value is -0.00859. In the case of RRIRDRPPRLPRPRPRPPKSPRP it was 0.555; in that of RRIRRRPPRLPRPRPRPKPVPRP, 0.191; in that of RRIRVRPPRLPRPRPRPKREPRP, 0.225. RRIRTRPPRLPRPRPRPQPGPRP: the “shrunken log2 fold change” value worked out at 0.165. In the case of RRIRYRPPRLPRPRPRPAYIPRP, the “shrunken log2 fold change” value was -0.00172. As for RRIRWRPPRLPRPRPRPWGGPRP, the “shrunken log2 fold change” value was 0.556. As for RRIRFRPPRLPRPRPRPDRTPRP, the “shrunken log2 fold change” value was -0.0783.

With RRIRQRPPRLPRPRPRPAKSPRP, the “shrunken log2 fold change” value is -0.0281. In the case of RRIRARPPRLPRPRPRPSEEPRP it was 0.452. Consider RRIRDRPPRLPRPRPRPLWTPRP, for which the “shrunken log2 fold change” value was found to be 0.163.

As for RRIRFRPPRLPRPRPRPSRIPRP, the “shrunken log2 fold change” value is -0.119. As for RRIRHRPPRLPRPRPRPYSKPRP, the figure is -1.03; as for RRIRRRPPRLPRPRPRPPENPRP, 0.615. As for RRIRCRPPRLPRPRPRPWRIPRP, the figure is -0.321; as for RRIRHRPPRLPRPRPRPSVAPRP, -0.156. As to RRIRVRPPRLPRPRPRPSNDPRP, the “shrunken log2 fold change” value is -0.244. In the case of RRIRNRPPRLPRPRPRPCWTPRP it was -0.0133. In the case of RRIRNRPPRLPRPRPRPGVVPRP it was 0.176; in that of RRIRGRPPRLPRPRPRPLMEPRP, 0.6. Take RRIRSRPPRLPRPRPRPWNDPRP: the “shrunken log2 fold change” value is -0.303. Regarding RRIRTRPPRLPRPRPRPIPTPRP, the “shrunken log2 fold change” value is -0.606. In the case of RRIRQRPPRLPRPRPRPLNIPRP it was -0.315.

On to RRIRYRPPRLPRPRPRPHAAPRP, for which the “shrunken log2 fold change” value was -0.211. On to RRIRCRPPRLPRPRPRPFADPRP, for which the “shrunken log2 fold change” value is -0.45. In the case of RRIRFRPPRLPRPRPRPNSQPRP it was -0.496. As for RRIRVRPPRLPRPRPRPCQMPRP, the figure is -0.486; as for RRIRIRPPRLPRPRPRPDGKPRP, -0.000921; as for RRIRRRPPRLPRPRPRPICMPRP, 0.296. In the case of RRIRGRPPRLPRPRPRPHYDPRP it was -0.0292; in that of RRIRWRPPRLPRPRPRPHAQPRP, 0.0298; in that of RRIRSRPPRLPRPRPRPHGHPRP, -0.167. For RRIRVRPPRLPRPRPRPNGIPRP, the “shrunken log2 fold change” value is -0.161. In the case of RRIRKRPPRLPRPRPRPPCIPRP it was -0.141; in that of RRIRQRPPRLPRPRPRPTYKPRP, -0.549. RRIRERPPRLPRPRPRPMHMPRP: the “shrunken log2 fold change” value was -0.000687.

Take RRIRTRPPRLPRPRPRPDKIPRP: the “shrunken log2 fold change” value was -0.172. With RRIRQRPPRLPRPRPRPHCFPRP, the “shrunken log2 fold change” value was -0.111. With RRIRIRPPRLPRPRPRPIINPRP, the “shrunken log2 fold change” value is -1.15.

For the sequence RRIRNRPPRLPRPRPRPTPVPRP, the “shrunken log2 fold change” value is 0.425.

Take RRIRLRPPRLPRPRPRPEQRPRP: the “shrunken log2 fold change” value came to 0.0422. Take RRIRVRPPRLPRPRPRPTVIPRP: the “shrunken log2 fold change” value was -0.127. In the case of RRIRFRPPRLPRPRPRPVYEPRP it was -0.66; in that of RRIRGRPPRLPRPRPRPHIMPRP, -0.0914; in that of RRIRNRPPRLPRPRPRPYLGPRP, -0.21. In the case of RRIRNRPPRLPRPRPRPDGGPRP it was -0.323. As for RRIRYRPPRLPRPRPRPHMMPRP, the figure is -1.6. Consider RRIRDRPPRLPRPRPRPVKAPRP, for which the “shrunken log2 fold change” value turned out to be 0.026. Regarding RRIRKRPPRLPRPRPRPDMLPRP, the “shrunken log2 fold change” value was -0.0389. For RRIRYRPPRLPRPRPRPTMVPRP, the “shrunken log2 fold change” value is -0.269. In the case of RRIRTRPPRLPRPRPRPPPMPRP, the “shrunken log2 fold change” value was 0.54. As for RRIRIRPPRLPRPRPRPFEVPRP, the figure is -0.162. With RRIRRRPPRLPRPRPRPTGAPRP, the “shrunken log2 fold change” value stood at 0.633. As to RRIRRRPPRLPRPRPRPIITPRP, the “shrunken log2 fold change” value was -0.253. Turning to RRIRNRPPRLPRPRPRPNWYPRP, the “shrunken log2 fold change” value was -0.647. In the case of RRIRQRPPRLPRPRPRPMCKPRP it was -0.0652; in that of RRIRRRPPRLPRPRPRPEYLPRP, -0.0446; in that of RRIRVRPPRLPRPRPRPPPAPRP, 1.07.

Take RRIRLRPPRLPRPRPRPMVDPRP: the “shrunken log2 fold change” value was -0.00377. For the sequence RRIRWRPPRLPRPRPRPGYRPRP, the “shrunken log2 fold change” value came to 0.0673. Consider RRIRLRPPRLPRPRPRPTICPRP, for which the “shrunken log2 fold change” value is -0.176. As for RRIRTRPPRLPRPRPRPTQSPRP, the figure is 0.311. In the case of RRIRRRPPRLPRPRPRPGRWPRP it was 0.591; in that of RRIRCRPPRLPRPRPRPLTEPRP, 0.131; in that of RRIRQRPPRLPRPRPRPPCMPRP, -0.0968. In the case of RRIRWRPPRLPRPRPRPQVKPRP it was 0.0306; in that of RRIRCRPPRLPRPRPRPNKNPRP, -0.344. Consider RRIRVRPPRLPRPRPRPQCYPRP, for which the “shrunken log2 fold change” value was -0.189. As for RRIRYRPPRLPRPRPRPDIYPRP, the figure is 0.0393; as for RRIRDRPPRLPRPRPRPIRHPRP, -0.0425; as for RRIRVRPPRLPRPRPRPNQTPRP, -0.0286. In the case of RRIRWRPPRLPRPRPRPMDLPRP, the “shrunken log2 fold change” value is -0.214. As for RRIRVRPPRLPRPRPRPNEIPRP, the figure is -0.52; as for RRIRERPPRLPRPRPRPWVEPRP, 0.0665. In the case of RRIRKRPPRLPRPRPRPVFHPRP it was 0.818; in that of RRIRIRPPRLPRPRPRPKSTPRP, -0.214; in that of RRIRWRPPRLPRPRPRPHCAPRP, -0.0143.

With RRIRMRPPRLPRPRPRPRECPRP, the “shrunken log2 fold change” value stood at 0.0611.

Turning to RRIRTRPPRLPRPRPRPEHIPRP, the “shrunken log2 fold change” value was -0.223. In the case of RRIRDRPPRLPRPRPRPCFGPRP it was -0.112.

RRIRMRPPRLPRPRPRPSYWPRP: the “shrunken log2 fold change” value is 0.0657. As to RRIRQRPPRLPRPRPRPAMLPRP, the “shrunken log2 fold change” value worked out at 0.0266.

With RRIRHRPPRLPRPRPRPNIIPRP, the “shrunken log2 fold change” value is -0.307.

Turning to RRIRSRPPRLPRPRPRPRQPPRP, the “shrunken log2 fold change” value turned out to be 0.268. As for RRIRARPPRLPRPRPRPWAFPRP, the figure is 0.222; as for RRIRGRPPRLPRPRPRPAHDPRP, 0.643; as for RRIRRRPPRLPRPRPRPQVYPRP, -0.0473. Regarding RRIRCRPPRLPRPRPRPKYTPRP, the “shrunken log2 fold change” value was -0.511. As for RRIRPRPPRLPRPRPRPQWGPRP, the figure is 0.132. In the case of RRIRPRPPRLPRPRPRPMWGPRP it was 0.0327. In the case of RRIRVRPPRLPRPRPRPAANPRP it was -0.00167. For RRIRVRPPRLPRPRPRPFTLPRP, the “shrunken log2 fold change” value was -0.104. For the sequence RRIRDRPPRLPRPRPRPIQWPRP, the “shrunken log2 fold change” value is -0.153. For the sequence RRIRERPPRLPRPRPRPILKPRP, the “shrunken log2 fold change” value was -0.401.

As for RRIRSRPPRLPRPRPRPVIWPRP, the “shrunken log2 fold change” value stood at 0.0455. In the case of RRIRGRPPRLPRPRPRPDMQPRP it was 0.37; in that of RRIRDRPPRLPRPRPRPGPEPRP, 0.544; in that of RRIRARPPRLPRPRPRPMLVPRP, 0.291. RRIRARPPRLPRPRPRPNQGPRP: the “shrunken log2 fold change” value was found to be 0.392. In the case of RRIRPRPPRLPRPRPRPVTYPRP it was -0.0866; in that of RRIRKRPPRLPRPRPRPWIIPRP, -0.277. In the case of RRIRGRPPRLPRPRPRPHLPPRP, the “shrunken log2 fold change” value is 0.0386. In the case of RRIRNRPPRLPRPRPRPEDTPRP it was -0.0307.
